Experimental findings from PMC314469, “Protein Interaction Networks by Proteome Peptide Scanning” (PLoS Biology, 2004) are described below.

Common to all, as to assay: SPOT array
The target of assay [1] is T1, Yhr016c SH3 (YSC84_YEAST), P32793.
T1 chain: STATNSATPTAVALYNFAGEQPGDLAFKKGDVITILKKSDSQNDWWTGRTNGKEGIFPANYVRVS

The target of assay [2] is T2, Rvs167 SH3 (RV167_YEAST), P39743.
T2 chain: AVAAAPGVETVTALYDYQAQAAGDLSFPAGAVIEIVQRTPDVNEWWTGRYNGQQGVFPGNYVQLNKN

The target of assay [3] is T3, Boi2 SH3 (BOI2_YEAST), P39969.
T3 chain: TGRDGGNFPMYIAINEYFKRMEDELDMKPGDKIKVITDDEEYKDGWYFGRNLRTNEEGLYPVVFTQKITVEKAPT

The target of assay [4] is T4, Boi1 SH3 (BOI1_YEAST), P38041.
T4 chain: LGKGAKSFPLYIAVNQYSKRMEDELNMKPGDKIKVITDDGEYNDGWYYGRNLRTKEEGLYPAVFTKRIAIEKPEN

Assay [5] has as its target T5, Yfr024 SH3 (LSB3_YEAST), P43603.
T5 chain: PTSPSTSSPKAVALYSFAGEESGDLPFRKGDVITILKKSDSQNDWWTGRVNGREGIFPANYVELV

Regarding SASPYRPQRLPAKF [YDL033C 13-26], the normalised SPOT signal, Boehringer light units (BLU); mean over the file's lines of this peptide in assay [1] was determined as 543; in assay [2] it was 67.3; in assay [3] it was 105; in assay [4], 514; in assay [5], 2420.
The matching figures for SDTPASPSKVQSFD [YMR182C 187-200]: 46.4, 51.8, 77.6, 94.4 and 94.3.
The matching figures for SASPTLPTRRSRRL [YDL156W 62-75]: 97900, 77800, 10000, 46400 and 49400.
As to RVLPSKPKKSVKEN [YLR183C 354-367], the normalised SPOT signal, Boehringer light units (BLU); mean over the file's lines of this peptide in assay [1] came to 196; in assay [2], 42.3; in assay [3] it was 17.8; in assay [4], 156; in assay [5] it was 2620.
Take SDKPLTPTKTSSTL [YER143W 341-354]: the normalised SPOT signal, Boehringer light units (BLU); mean over the file's lines of this peptide in assay [1] was 377; in assay [2] it was 100; in assay [3], 53.6; in assay [4], 110; in assay [5], 150.
The matching figures for SENPLLPEKLSQSK [YNR016C 154-167]: 158, 24.9, 38.8, 54.4 and 196.
In the case of SDLPSSPIKAPNVE [YHR164C 232-245], the normalised SPOT signal, Boehringer light units (BLU); mean over the file's lines of this peptide in assay [1] came out at 50.7; in assay [2], 27.8; in assay [3], 59.9; in assay [4], 41.3; in assay [5] it was 8.4.
The matching figures for SELPTRPSKSKTYN [YNL139C 1447-1460]: 375, 20.6, 39.8, 138 and 4580.
Regarding SALPILPKREVVTR [YGL028C 19-32], the normalised SPOT signal, Boehringer light units (BLU); mean over the file's lines of this peptide in assay [1] came to 43500; in assay [2] it was 20100; in assay [3] it was 33.1; in assay [4], 72.3; in assay [5], 49200.
The matching figures for SEEPTSPTRQVNPE [YER032W 443-456]: 303, 40.3, 26.6, 32.5 and 52.2.
The matching figures for SELPKSPYRQKPTQ [YHR184W 124-137]: 0, 15.8, 37.1, 1670 and 440.
RYKPTPPLKKRYDY [YPL074W 335-348]: the normalised SPOT signal, Boehringer light units (BLU); mean over the file's lines of this peptide in assay [1] is 148; in assay [2], 50.9; in assay [3], 83.4; in assay [4] it was 25.5; in assay [5] it was 2110.
The matching figures for SAFPQSPIRAYGST [YGL197W 1382-1395]: 156, 48.9, 37.5, 238 and 186.
The matching figures for RVHPEPPNKPGITT [YDR330W 407-420]: 250, 55.3, 76.2, 122 and 271.
For the molecule SAIPITPTKRIRRN [YJL194W 2-15], the normalised SPOT signal, Boehringer light units (BLU); mean over the file's lines of this peptide in assay [1] is 31.6; in assay [2], 73; in assay [3], 141; in assay [4] it was 873; in assay [5] it was 2690.
